Experimental data reported in US20130022611A1, “METHODS AND COMPOSITIONS FOR MODULATING HEPSIN ACTIVATION OF UROKINASE-TYPE PLASMINOGEN ACTIVATOR” (Genentech, Inc., priority 2006, published 2013).

How the values were obtained:
pro-uPA = target: T1, pro-uPA (Homo sapiens, UniProt P00749); experiment: First-order kinetics of pro-uPA activation by serine proteases; type: biochemical; settings: for Added pro-uPA converted during the experiment / First-order rate constant k ± SD: 30 nM pro-uPA, 3 nM enzyme; for First-order rate constant k ± SD: room temperature, 5 experiments; for Efficiency of pro-uPA activation compared to matriptase: kcat/Km ratio
T1 construct: time-dependent cleavage of the single-chain form into the two-chain form; purchased Cortex Biochem (San Leandro, Calif.)
Experimental: The Km and kcat values for pro-uPA activation could not be accurately determined because the pro-uPA stock solution from the supplier (0.8 mg/ml) was not sufficiently high. Therefore, we chose to determine the first-order rate constant k as a measure of pro-uPA conversion efficiency. It was ensured that the pro-uPA concentration used (30 nM) was in the range of first-order kinetics for the enzymes tested, i.e. hepsin, plasmin and matriptase. The rate of uPA formation by these enzymes was linear up to 200 nM of pro-uPA. Pro-uPA (30 nM) was added to the enzymes (3 nM) in Hepes buffer to start the reaction at room temperature. At various time points, 50-μl aliquots were removed and added to 150 μl of 667 nM HAI-2 (final concentration in 250 μl was 400 nM) in Hepes buffer to stop further pro-uPA cleavage. […] Our results on HAI-2 inhibition of plasmin and HGFA (data not shown) were consistent with the published data (26,27). After addition of 50 μl of 2.5 mM S2444, the increase in absorbance at 405 nm was measured on a kinetic microplate reader. The concentration of uPA in each aliquot was calculated from a standard curve of enzymatically converted pro-uPA. The data were expressed as the decrease in the concentration of pro-uPA (log [pro-uPA]) as function of time. The first-order rate constant k was calculated from the slope using the equation
log [S]=−(k/2.3)t+log [S]0
where [S] is the concentration of pro-uPA and [S]0 is the initial pro-uPA concentration. The catalytic efficiency, kcat/Km, was then calculated using the known enzyme concentration [E] and the relationship k=(kcat/Km)[E]. The values are the average of 5 experiments±SD.

pro-tPA = target: T2, pro-tPA (Homo sapiens, UniProt P00750); experiment: Pro-tPA cleavage analysed by SDS-PAGE; type: biochemical; settings: 1.5 μM pro-tPA, 15 nM enzyme, 10 and 60 min
T2 construct: purchased Biodesign International (Saco, Me.)
T2 sequence (P00750 36-562): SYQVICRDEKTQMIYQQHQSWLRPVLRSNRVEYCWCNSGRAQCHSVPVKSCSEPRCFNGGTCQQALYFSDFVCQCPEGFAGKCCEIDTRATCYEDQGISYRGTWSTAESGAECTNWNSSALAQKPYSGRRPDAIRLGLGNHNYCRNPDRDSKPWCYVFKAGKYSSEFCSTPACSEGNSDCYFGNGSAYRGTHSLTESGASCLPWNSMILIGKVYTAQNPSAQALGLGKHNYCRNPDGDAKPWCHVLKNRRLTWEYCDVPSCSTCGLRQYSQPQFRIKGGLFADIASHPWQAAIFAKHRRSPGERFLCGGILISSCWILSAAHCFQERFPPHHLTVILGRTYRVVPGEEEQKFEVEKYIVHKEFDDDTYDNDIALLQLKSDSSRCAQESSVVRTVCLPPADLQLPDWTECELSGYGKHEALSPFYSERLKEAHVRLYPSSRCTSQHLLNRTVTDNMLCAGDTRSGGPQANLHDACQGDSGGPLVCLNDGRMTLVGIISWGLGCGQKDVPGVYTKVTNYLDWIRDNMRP
Experimental: Pro-uPA at a concentration of 1.5 μM was incubated with 15 nM hepsin or 15 nM plasmin in Hepes buffer at room temperature. […] The samples were analyzed by SDS-PAGE using a 4-20% gradient gel (Invitrogen; Carlsbad, Calif.). Protein was visualized after staining with SimplyBlue Safe Stain (Invitrogen). Experiments with pro-tPA (1.5 μM) were carried out identically, except that the buffer used was 50 mM sodium phosphate pH 7.5, 200 mM arginine, 0.01% Tween-20.

[1] = tested on: LnCaP-34 cells (hepsin-overexpressing); experiment: Pro-uPA activation by LnCaP-34 cells (two-stage enzymatic assay); type: cell-based, human
Experimental: (§1) Confluent LnCaP-34 and LnCaP-17 cells were washed with HBSA-Glucose buffer (20 mM Hepes pH 7.5, 150 mM NaCl, 5 mM CaCl2, 0.05 mg/ml BSA, 5 mM glucose) and 0.8 ml of 100 nM pro-uPA in pre-warmed HBSA-Glucose buffer was added to the cell layers. The inhibitors KD1 or HI-10331 were added to give final concentrations of 1 μM and 10 μM, respectively. The culture plates were kept at 37° C. and 50 μl samples were withdrawn at different time points, supplemented with 0.2 ml of […] S2444 in Hepes buffer and the increase in absorbance at 405 nm measured on a kinetic microplate reader. Cell numbers were determined at the end of the experiments. The concentration of formed uPA in each sample was calculated from a standard curve of enzymatically converted pro-uPA and normalized to 10^6 cells. After subtracting the background levels of uPA formed in the absence of cell layer, the linear rates of uPA formation/10^6 cells were determined.

LnCaP-17 cells = experiment: Pro-uPA activation by LnCaP-17 cells (two-stage enzymatic assay); type: cell-based, human
Experimental: as §1

[2] = tested on: LnCaP-34 cells (hepsin-overexpressing); experiment: Pro-uPA conversion by LnCaP-34 cells, immunoblotting; type: cell-based, human; settings: LnCaP-34, 30 nM pro-uPA, 1 h, 3 h, 5 h, 37° C.
Experimental: For immunoblotting experiments, confluent LnCaP-34 cell layers were washed as above and incubated with 30 nM pro-uPA at 37° C. After 1 hr, 3 hr and 5 hr, aliquots were taken and immediately added to SDS sample buffer. The proteins were separated by SDS-PAGE and transferred onto nitrocellulose filters using the Bio-Rad Semi Dry Transfer system. Pro-uPA and uPA were visualized by using a rabbit polyclonal anti-uPA antibody (Cell Sciences; Canton, Mass.) followed by HRP-conjugated anti-rabbit antibody (Jackson ImmunoResearch Laboratory; West Grove, Pa.) and ECL (GE Healthcare; Piscataway, N.J.) enhancement.

uPA [3] = target: T3, uPA (Homo sapiens, UniProt P00749); experiment: Chromogenic activity towards S2444 of samples withdrawn from LnCaP cell layers; type: biochemical; settings: data not shown
T3 construct: two-chain form consisting of the 20 kDa A-chain and the 30 kDa B-chain (protease domain); purchased American Diagnostica (Greenwich, Conn.)
Experimental: as §1

uPA [4] = target: T3, uPA; settings: reference 21; cited from earlier work
uPA [5] = target: T3, uPA; experiment: Enzymatic assay of uPA with chromogenic substrate S2444; type: biochemical; settings: 10 nM uPA, S2444 at Km; read-out: Ki* (apparent equilibrium dissociation constant) ± SD
Experimental: The reversible active site inhibitor HI-10331 (Genentech, Inc.) (having the molecule structure depicted in FIG. 10, and disclosed in U.S. Pat. No. 6,472,393) or HAI-2 were incubated with 0.5 nM hepsin, 0.5 nM matriptase and 10 nM uPA for 30 min in Hepes buffer (20 mM Hepes, pH 7.5, 150 mM NaCl, 5 mM CaCl2, 0.01% Triton X-100) at room temperature. The chromogenic substrates S2366 (for hepsin), S2765 (for matriptase) and S2444 (for uPA) were added at a concentration corresponding to their respective Km values, which were determined in separate experiments. After substrate addition, the linear rates of the increase in absorbance at 405 nm was measured on a kinetic microplate reader (Molecular Devices, Sunnyvale, Calif.).
The Ki values were calculated according to the relationship Ki=IC50/(1+[S]/Km) (23) using the experimentally determined IC50 and Km values for each enzyme-substrate pair. For HAI-2, the apparent Ki values (Ki^*) were determined by fitting the data to the equation for tight binding inhibition (24,25).

Which “Added pro-uPA converted during the experiment” value (pro-uPA) does the source give for “Hepsin: soluble His-tagged extracellular domain of human hepsin (Arg45-Leu417), baculovirus expressed” here?
The value was “about 70%”.

And the “First-order rate constant k ± SD” value (pro-uPA)?
The value was 87.1 ± 11.3 10^−3 min^−1.

What about the “Efficiency of pro-uPA activation compared to matriptase” value (pro-uPA) of the same molecule?
Its value is “about 6 fold”.

What about the “Cleavage of pro-tPA” value (pro-tPA) of the same molecule?
The value was “does not cleave”.

Which results are given for “KD1: Kunitz domain-1 inhibitor derived from HAI-1B, produced in E. coli (TEDYCLASNKVGRCRGSFPRWYYDPTEQICKSFVYGGCLGNKNNYLREEECILACRGV)”?
Inhibition of pro-uPA cleavage ([1]; LnCaP-34, 1 μM KD1): almost completely inhibited; Rate of pro-uPA activation per 10^6 cells ± SD ([1]; LnCaP-34, 1 μM KD1, 100 nM pro-uPA, 37° C.): 0.2 ± 0.1 nM uPA hr^−1; Inhibition of pro-uPA cleavage (LnCaP-17 cells; LnCaP-17, 1 μM KD1): almost completely inhibited; Rate of pro-uPA activation per 10^6 cells ± SD (LnCaP-17 cells; LnCaP-17, 1 μM KD1, 100 nM pro-uPA, 37° C.): 0.2 ± 0.2 nM uPA hr^−1; Inhibition of pro-uPA cleavage (immunoblot) [2]: strongly inhibited; Inhibition of chromogenic activity of the withdrawn samples (uPA [3]): not inhibited; Inhibition of uPA (uPA [4]): does not inhibit

B1: HAI-2: recombinantly expressed soluble hepatocyte growth factor activator inhibitor-2, a bi-Kunitz inhibitor (protein)
chain: ADRERSIHDFCLVSKVVGRCRASMPRWWYNVTDGSCQLFVYGGCDGNSNNYLTKEECLKKCATVTENATGDLATSRNAADSSVPSAPRRQDSEDHSSDMFNYEEYCTANAVTGPCRASFPRWYFDVERNSCNNFIYGGCRGNKNSYRSEEACMLRCFRQQENPPLPLGSK
With B1 as the molecule, how does the Ki (uPA [5]) read?
Its Ki is greater than 1000 nM.

B2: Plasmin: Lys-plasmin from Heamatologic Technologies Inc., known pro-uPA activator (protein)
chain: KVYLSECKTGNGKNYRGTMSKTKNGITCQKWSSTSPHRPRFSPATHPSEGLEENYCRNPDNDPQGPWCYTTDPEKRYDYCDILECEEECMHCSGENYDGKISKTMSGLECQAWDSQSPHAHGYIPSKFPNKNLKKNYCRNPDRELRPWCFTTDPNKRWELCDIPRCTTPPPSSGPTYQCLKGTGENYRGNVAVTVSGHTCQHWSAQTPHTHNRTPENFPCKNLDENYCRNPDGKRAPWCHTTNSQVRWEYCKIPSCDSSPVSTEQLAPTAPPELTPVVQDCYHGDGQSYRGTSSTTTTGKKCQSWSSMTPHRHQKTPENYPNAGLTMNYCRNPDADKGPWCFTTDPSVRWEYCNLKKCSGTEASVVAPPPVVLLPDVETPSEEDCMFGNGKGYRGKRATTVTGTPCQDWAAQEPHRHSIFTPETNPRAGLEKNYCRNPDGDVGGPWCYTTNPRKLYDYCDVPQCAAPSFDCGKPQVEPKKCPGRVVGGCVAHPHSWPWQVSLRTRFGMHFCGGTLISPEWVLTAAHCLEKSPRPSSYKVILGAHQEVNLEPHVQEIEVSRLFLEPTRKDIALLKLSSPAVITDKVIPACLPSPNYVVADRTECFITGWGETQGTFGAGLLKEAQLPVIENKVCNRYEFLNGRVQSTELCAGHLAGGTDSCQGDSGGPLVCFEKDKYILQGVTSWGLGCARPNKPGVYVRVSRFVTWIEGVMRNN
Which “Added pro-uPA converted during the experiment” value (pro-uPA) does the source give for B2 here?
The value was “about 70%”.

And the “First-order rate constant k ± SD” value (pro-uPA)?
Its value is 81.5 ± 14.2 10^−3 min^−1.

What about the “Efficiency of pro-uPA activation compared to matriptase” value (pro-uPA) of the same molecule?
Its value is “about 6 fold”.

B3: Matriptase: matriptase protease domain expressed in E. coli (protein)
chain: VVGGTDADEGEWPWQVSLHALGQGHICGASLISPNWLVSAAHCYIDDRGFRYSDPTQWTAFLGLHDQSQRSAPGVQERRLKRIISHPFFNDFTFDYDIALLELEKPAEYSSMVRPICLPDASHVFPAGKAIWVTGWGHTQYGGTGALILQKGEIRVINQTTCENLLPQQITPRMMCVGFLSGGVDSCQGDSGGPLSSVEADGRIFQAGVVSWGDGCAQRNKPGVYTRLPLFRDWIKENTGV
Which “First-order rate constant k ± SD” value (pro-uPA) does the source give for B3 here?
The value was 14.2 ± 4.9 10^−3 min^−1.
